For the series, the system named is MS2 coat protein. Description: apparent KD of MS2 coat protein; designed switch direction (-1 OFF switch, 1 ON switch): -1; higher = weaker reporter binding. In outline:
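Designed RNA switches sharing common flanks were transcribed on Illumina chips by stalled E. coli RNA polymerase. They were titrated with SNAP-549-labelled MS2 coat protein, from 0.7 or 1.5 nM doubling to 3 µM, in Tris-HCl pH 7.5 buffer with KCl, MgCl2, BSA, DTT, tRNA and Tween-20. Titrations ran without input, with 200 uM small-molecule ligand, or with an oligonucleotide input. The apparent KD of each design is the median over its clusters, after curve-fitting of normalised cluster fluorescence.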

The mark [1] stands for this setting: input ligand: microRNA oligo, concentration not stated.
Setting [2] is: Eterna round: R95, input ligand: FMN 200 uM.
Where [3] appears, read: Eterna round: R95, input ligand: microRNA oligo, concentration not stated.
[4] abbreviates: Eterna round: R95, input ligand: none.

“AAGCAACAUGAGGAUCACCCAUGUGAGGAUAUACGCAUGCAUGCAUGCAUGCAUGCAAGUAGAAGGCACAAUAC [Design #16] (Eterna round: R97, puzzle: Exclusion 1)”: the “apparent KD of MS2 coat protein” value (input ligand: FMN 200 uM) is 69.8 nM and the “apparent KD of MS2 coat protein” value (input ligand: none) stood at 35.3 nM.

As for “AAGGACCGUGUAGGAUAUGCACUGAAUAGGUCAGGAGGGUUCUUACACAUGAGGAUCACCCAUGUGUAGAAGGACGGAAGGUCA [Eternabot solution 25] (Eterna round: R96, puzzle: Exclusion NG 2)”, the “apparent KD of MS2 coat protein” value is 12.7 nM (input ligand: FMN 200 uM), 11.4 nM under setting [1] and 15.2 nM (input ligand: none).

As to “AAGGCGGUAGGAUAUACAUGAGGAUCACCCAUGUGUCGCAUAAUCACAGCAGUACUCUGUAGAAGGACCGUCAG [Eternabot (L2) Solution 100] (Eterna round: R97, puzzle: Exclusion 3)”, the “apparent KD of MS2 coat protein” value was determined as 457 nM (input ligand: FMN 200 uM) and 114 nM (input ligand: none).

Consider “AAGUACCGGUGAGGAUAUUUAUAAUAGAGCUUUAUGAUAUACAUGAGGAUCACCCAUGUUACUUUAAAGAAGGCAUCGGAUUAA [Mat - Exclusion NG 2 - Mod of JL - D92] (Eterna round: R96, puzzle: Exclusion NG 2)”, for which the “apparent KD of MS2 coat protein” value by setting is: (input ligand: FMN 200 uM) 19.2 nM; under setting [1], 11.1 nM; (input ligand: none) 18.1 nM.

On to “AAGUACCGUCACGAUAGUGAUGGUACAACUAGCAUGUAAACAUGAGGAUCACCCAUGUCCUCAAUUGCUCGUCUUAU [Sensor 3 - 69] (puzzle: Sensor v3, turn-off variant 2)”, for which the “apparent KD of MS2 coat protein” value is, setting by setting: under setting [2], 740 nM; under setting [3], 829 nM; under setting [4], 814 nM.

For “AAGUAGACAGUGAGGAUAUAGGUGGAAUGACCCAUUUAGAAGGUACAUGAGGAUCACCCAUGUGGGUAAUGUCG [Brourd's EX4 #27] (Eterna round: R97, puzzle: Brourd's mod of Exclusion 4)”, the “apparent KD of MS2 coat protein” value reads like this: (input ligand: FMN 200 uM) 146 nM; (input ligand: none) 149 nM.

“AAGUAGUCUGUGAGGAUAUUGGUGGAAUGACACAUUAAGAAGGUACAUGAGGAUCACCCAUGUGGGUAAAGACG [Brourd's EX4 #24] (Eterna round: R97, puzzle: Brourd's mod of Exclusion 4)”: the “apparent KD of MS2 coat protein” value by setting is: (input ligand: FMN 200 uM) 115 nM; (input ligand: none) 109 nM.

As for “AAGUAGUGUGUGAGGAUAUUGGUGGAAUGACACAUUAAGAAGGUACAUGAGGAUCACCCAUGUGGGUAAACACG [Brourd's EX4 #23] (Eterna round: R97, puzzle: Brourd's mod of Exclusion 4)”, the “apparent KD of MS2 coat protein” value (input ligand: FMN 200 uM) turned out to be 137 nM and the “apparent KD of MS2 coat protein” value (input ligand: none) was determined as 146 nM.

“AAGUAUAGAGGAUAUAGUGAGUACUACAUGAGGAUCACCCAUGUUCUUCAAAGCGUAUUUCUAGAAGGCUAAUGAA [EX-5 Malc#14] (puzzle: Exclusion 5)”: under setting [3], the “apparent KD of MS2 coat protein” value was found to be 43.3 nM.

Turning to “AAGUAUAGAGGAUAUAGUGAGUACUACAUGAGGAUCACCCAUGUUCUUCGAAACGUAUUUCUAGAAGGCUGAUAAA [EX-5 Malc#22] (puzzle: Exclusion 5)”, the “apparent KD of MS2 coat protein” value is, setting by setting: under setting [2], 35.3 nM; under setting [3], 28.2 nM; under setting [4], 29.2 nM.

As for “AAGUCCGAGCGAGGAUAUUCACCUCAGUCAGCUGAAGAAGGCGCUAAGCGGUGAUUAUUUUGUACAUGAGGAUCACCCAUGUCA [Eternabot solution 49] (Eterna round: R96, puzzle: Exclusion NG 1)”, the “apparent KD of MS2 coat protein” value by setting is: (input ligand: FMN 200 uM) 20.7 nM; under setting [1], 21.2 nM; (input ligand: none) 22.6 nM.

For the sequence “AAGUCGAGCGUGAGGAUAUUGACCGGACGACCCAUCGAGAAGGCACAUGAGGAUCACCCAUGUGAUUCAGCUCA [Brourd's EX4 #52] (Eterna round: R97, puzzle: Brourd's mod of Exclusion 4)”, the “apparent KD of MS2 coat protein” value (input ligand: FMN 200 uM) stood at 23.2 nM and the “apparent KD of MS2 coat protein” value (input ligand: none) worked out at 15.5 nM.

Regarding “AAGUGUCCUAAGGAUAUCGAAGCUAUCGGCUGCCGAGAAGGUAGGACAUGAGGAUCACCCAUGUACCGUGAGCC [Reedor] (puzzle: Exclusion 6)”, under setting [3], the “apparent KD of MS2 coat protein” value came to 64.6 nM.

Turning to “AAGUUACAUGAGGAUCACCCAUGUGAGGAUAUGAGUCAGUCACGGUGACGUGGCUGACUCAGAAGGCACAUAGG [JL-ex1-4.42 salish99 mod] (Eterna round: R97, puzzle: Exclusion 1)”, the “apparent KD of MS2 coat protein” value (input ligand: FMN 200 uM) is 256 nM and the “apparent KD of MS2 coat protein” value (input ligand: none) amounted to 77.1 nM.

Take “AAUAAACAAGCGAGAUCCUACAUGAGGAUCACCCAUGUGCUCGUCUUAUAAAGUACUAUCACGAAAGUGAUAGUACA [Mat - Sensor v3 - turn-off var 1 - Eli Mod - D65] (puzzle: Sensor v3, turn-off variant 1)”: the “apparent KD of MS2 coat protein” value was found to be 16.1 nM under setting [2], 41.5 nM under setting [3] and 15.3 nM under setting [4].

In the case of “AAUAAACAUGAGGAUCACCCAUGUCAGGAUAUACGAAGAAAGAAAGAAAGAAAGAAGAGUAGAAGGGAUAGGAA [Excls1-III] (puzzle: Exclusion 1)”, the “apparent KD of MS2 coat protein” value came out at 31.6 nM under setting [2], 29.3 nM under setting [3] and 32.6 nM under setting [4].

Turning to “AAUAAACAUGAGGAUCACCCAUGUGAGGAUAUCCAAAUAAAUAAUAAAAUAAAUAAAAGGAGAAGGCACAAUAA [JMF most obvious solution 2] (puzzle: Exclusion 1)”, the “apparent KD of MS2 coat protein” value was 71.7 nM under setting [2], 198 nM under setting [3] and 190 nM under setting [4].

Turning to “AAUAACAGAGGAUAUACUAUUUUAUGUGUUUGUUGUUUUGAACAUGAGGAUCACCCAUGUAGAAGGCUGAGUAA [JMF 40] (puzzle: Exclusion 2)”, the “apparent KD of MS2 coat protein” value under setting [3] was 24.2 nM.

For the sequence “AAUAACAGAGGAUAUACUGUUUUAUGUAUUUAUUAUUUUAAACAUGAGGAUCACCCAUGUAGAAGGCUGAGUAA [JMF 28] (puzzle: Exclusion 2)”, the “apparent KD of MS2 coat protein” value under setting [3] was found to be 22.6 nM.

As for “AAUAACAGAGGAUAUACUGUUUUAUGUAUUUAUUAUUUUGAACAUGAGGAUCACCCAUGUAGAAGGCUGAUUGA [JMF 75] (puzzle: Exclusion 2)”, under setting [3], the “apparent KD of MS2 coat protein” value is 31.7 nM.

On to “AAUAAGGGAGGAUAUACAUUAAAUCCUAUUUUCUUUUUGUUACAUGAGGAUCACCCAUGUAGAAGGCCCAAUAA [lam1] (Eterna round: R97, puzzle: Exclusion 2)”, for which the “apparent KD of MS2 coat protein” value (input ligand: FMN 200 uM) is 54.5 nM and the “apparent KD of MS2 coat protein” value (input ligand: none) was found to be 23 nM.

As for “AAUAAGUGAGGAUAUGCAAUAAUAAAUAAAAUAAUAAAUAAGCAGAAGGCACAUGAGGAUCACCCAUGUAAUAA [JMF's solution 1] (puzzle: Exclusion 4)”, the “apparent KD of MS2 coat protein” value is, setting by setting: under setting [2], 29.2 nM; under setting [3], 20.8 nM; under setting [4], 21.6 nM.

As for “AAUAAUAGGGAGGAUAUCGUAUCGGAAACGAUACGAGAAGGUCUAACAUGAGGAUCACCCAUGUUCCUCAAUAA [Fiskers Ex 6 - 5] (puzzle: Exclusion 6)”, the “apparent KD of MS2 coat protein” value was 68.3 nM under setting [2], 40.6 nM under setting [3] and 45.7 nM under setting [4].

Turning to “AAUAAUGAUAAGGAUAUCACUAGCUGCGGCUAGUGAGAAGGUAUCACAUGAGGAUCACCCAUGUGUUCCAAUAA [Ex6/6-A3] (Eterna round: R97, puzzle: Exclusion 6)”, the “apparent KD of MS2 coat protein” value reads like this: (input ligand: FMN 200 uM) 33.1 nM; (input ligand: none) 14.1 nM.

These data come from the supplement of paper PMC9170038.
